Assay results published in paper PMC9342608, “The OsEIL1‐OsERF115‐target gene regulatory module controls grain size and weight in rice”.

T1: GST-OsEIL1N (Oryza sativa, UniProt Q10M41 1-350)
T1 sequence: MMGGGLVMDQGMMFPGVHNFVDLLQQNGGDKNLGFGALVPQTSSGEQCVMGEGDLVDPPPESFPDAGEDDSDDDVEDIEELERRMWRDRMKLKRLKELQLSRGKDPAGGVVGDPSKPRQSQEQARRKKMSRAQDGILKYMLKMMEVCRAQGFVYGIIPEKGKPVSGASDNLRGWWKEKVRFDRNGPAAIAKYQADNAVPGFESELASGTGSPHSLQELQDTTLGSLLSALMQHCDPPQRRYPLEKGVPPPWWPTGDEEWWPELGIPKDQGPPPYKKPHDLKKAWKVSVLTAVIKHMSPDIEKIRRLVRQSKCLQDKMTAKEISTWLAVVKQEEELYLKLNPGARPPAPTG

B1: OsERF115 probe 2 (EBS2) (dsDNA)
DNA 1: ATATGGCTAGAAACATAAATGTAGCTACTTTCTCTGTGCACGA
DNA 2: TCGTGCACAGAGAAAGTAGCTACATTTATGTTTCTAGCCATAT
B2: OsERF115 probe 3 (EBS3) (dsDNA)
DNA 1: GATAGAACTACGTATGCACGGACCGGCTCATCACTAGAGGAG
DNA 2: CTCCTCTAGTGATGAGCCGGTCCGTGCATACGTAGTTCTATC
B3: OsERF115 probe 1 (EBS1) (dsDNA)
DNA 1: CATAACTTTTCAGTCACATCATCTCCAATTTCAACCAAAATCCAAAC
DNA 2: GTTTGGATTTTGGTTGAAATTGGAGATGATGTGACTGAAAAGTTATG

What follows are binders tested against T1, GST-OsEIL1N (assay: EMSA; EMSA/Gel-Shift Binding Buffer (Beyotime GS005), 30 min at room temperature, 6% native PAGE; salt and pH not stated). Details: protein: recombinant; tags: GST (N-terminal, pGEX-4T); label: 5' biotin on strand 1; blunt.

Q: Does B1 bind?
A: binds

Q: Does B2 bind?
A: binds

Q: Does B3 bind?
A: binds
